{
  "source": "patent US9879060B2",
  "about": "“SV82 polypeptide, and cosmetic composition for reducing skin wrinkles and maintaining skin elasticity comprising SV82 polypeptide as active ingredient” (NEXGEN BIOTECHNOLOGIES, INC., priority 2015, dated 2018)",
  "tested_on": "Human dermal fibroblast adult (HDFa) cells",
  "assay": "Cell proliferation of HDFa by crystal violet staining",
  "format": "cell-based",
  "details": "0.02 or 0.2 ppm, 3 days at 37° C., compared to a control (FIG. 5)",
  "description": "Human dermal fibroblast adult (HDFa) cells, which had been cultured to evaluate the activity of SV82 polypeptide that has been separated and purified in Example 2, were treated with SV82 polypeptide having a concentration of 0, 0.02 ppm or 0.2 ppm, and then incubated for 3 days at a temperature of 37° C. Thereafter, the cells were stained by crystal violate staining to identify whether the cells had proliferated.",
  "data": [
    {"molecule": "SV82 polypeptide (protein, SV82) MKYLLPTAAAGLLLLAAQPAMARATCAGQDQPCKETCDCCGERGECVCGGPCICRQGYFWIAWYKLANCKKLEHHHHHH", "values": [
      {"measurement": "cell proliferation of HDFa (crystal violet staining)", "value": "the more HDFa cells proliferate"}
    ]}
  ]
}
